Laboratory results published in patent US5877275A, “Controlling cellular immune/inflammatory responses with β2 integrins” (The General Hospital Corporation, priority 1995, dated 1999).

Biological target: iC3b (Homo sapiens, UniProt P01024)
Assay: Binding of soluble heterodimer / wild-type receptor to iC3b-sepharose (elution, SDS-PAGE, autoradiography)
Conditions: detergent soluble fraction of 125I-surface-labelled neutrophils, immunoprecipitated with 44a mAb from eluate
Experimental: CD11b^1089 /CD18^699 was next tested for its ability to bind iC3b (the receptor bound by wild-type CD11b/CD18). Briefly, COS cells were transfected CD11b^1089 and CD18^699 cDNA as described above. Cells were labeled with ^35 S-methionine as described by Dana et al., J. Clin. Invest. 79:1010 (1987). Supernatants from both co-transfected COS cells (7×10^6 cells) and mock-transfected COS cells (7×10^6 cells) were concentrated to one ml using collodion bags (10,000 MW cut off). 100 μl of the concentrated supernatant were used for immunoprecipitation, and the rest of the supernatant was incubated with C3b-sepharose or iC3b-sepharose. C3b-sepharose and iC3b-sepharose was washed, eluted with 0.4 M NaCl and the eluted proteins were analyzed by SDS-PAGE and autoradiography. Binding of wild-type, membrane-bound CD11b/CD18 to iC3b-sepharose or C3b-sepharose was performed as described by Arnaout et al., (In Methods in Enzymology, DiSabato, Ed., Acad. Press Inc., Fla., 1987) using the detergent soluble fraction from 1×10^8 125 I-surface-labelled neutrophils.
FIG. 3 illustrates the results of SDS-PAGE analysis of neutrophil-derived ^125 I-surface-labeled glycoproteins eluted from C3b-sepharose and iC3b-sepharose. Eluants from C3b-sepharose (lane a) contained complement receptor type 1 (250kD) and the C3-binding regulatory protein gp45/70 (45-70 kD). […]

iC3b, sequence (P01024 23-667 limits assumed): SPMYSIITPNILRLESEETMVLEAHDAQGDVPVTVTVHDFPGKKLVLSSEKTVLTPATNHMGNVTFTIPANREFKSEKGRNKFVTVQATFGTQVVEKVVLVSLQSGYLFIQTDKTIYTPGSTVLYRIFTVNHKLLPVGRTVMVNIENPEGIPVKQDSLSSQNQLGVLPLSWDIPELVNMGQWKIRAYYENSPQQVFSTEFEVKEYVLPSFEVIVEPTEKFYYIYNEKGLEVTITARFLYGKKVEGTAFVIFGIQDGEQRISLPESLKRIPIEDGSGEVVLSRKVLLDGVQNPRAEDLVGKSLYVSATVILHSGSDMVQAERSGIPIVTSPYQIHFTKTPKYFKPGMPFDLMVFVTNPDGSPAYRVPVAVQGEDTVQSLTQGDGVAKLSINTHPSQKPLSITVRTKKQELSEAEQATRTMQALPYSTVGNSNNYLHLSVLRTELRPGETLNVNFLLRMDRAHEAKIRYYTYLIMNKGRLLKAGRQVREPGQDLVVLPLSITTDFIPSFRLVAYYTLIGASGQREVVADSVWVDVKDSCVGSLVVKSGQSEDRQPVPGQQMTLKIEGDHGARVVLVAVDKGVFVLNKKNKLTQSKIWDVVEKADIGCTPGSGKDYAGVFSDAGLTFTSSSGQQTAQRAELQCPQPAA
iC3b, sequence (P01024 749-954 limits assumed): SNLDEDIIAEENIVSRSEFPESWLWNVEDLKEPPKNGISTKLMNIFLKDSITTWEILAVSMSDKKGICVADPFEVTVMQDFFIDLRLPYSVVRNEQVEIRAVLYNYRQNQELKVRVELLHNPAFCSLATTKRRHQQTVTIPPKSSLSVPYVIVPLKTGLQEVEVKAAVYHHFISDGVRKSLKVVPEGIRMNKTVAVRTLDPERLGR
iC3b, sequence (P01024 955-1303 limits assumed): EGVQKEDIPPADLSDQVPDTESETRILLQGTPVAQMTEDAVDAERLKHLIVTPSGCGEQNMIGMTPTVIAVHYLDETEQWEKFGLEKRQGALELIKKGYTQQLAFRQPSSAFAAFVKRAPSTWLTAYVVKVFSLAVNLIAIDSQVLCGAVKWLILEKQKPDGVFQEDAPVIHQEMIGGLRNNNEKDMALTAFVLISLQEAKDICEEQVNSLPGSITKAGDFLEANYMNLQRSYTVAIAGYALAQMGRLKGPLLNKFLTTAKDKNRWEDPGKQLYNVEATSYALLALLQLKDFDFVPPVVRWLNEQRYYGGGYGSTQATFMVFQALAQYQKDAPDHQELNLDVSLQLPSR
iC3b, sequence (P01024 1321-1663 limits assumed): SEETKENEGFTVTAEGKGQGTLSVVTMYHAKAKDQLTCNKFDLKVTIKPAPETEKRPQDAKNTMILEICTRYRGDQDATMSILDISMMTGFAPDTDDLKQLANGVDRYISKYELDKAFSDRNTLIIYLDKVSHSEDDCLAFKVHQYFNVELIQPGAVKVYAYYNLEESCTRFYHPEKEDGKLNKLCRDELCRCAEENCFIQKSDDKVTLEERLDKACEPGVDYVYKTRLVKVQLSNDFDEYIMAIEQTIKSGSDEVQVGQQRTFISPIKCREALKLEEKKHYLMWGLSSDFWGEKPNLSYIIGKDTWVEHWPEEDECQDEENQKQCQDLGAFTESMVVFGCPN

binding to iC3b-sepharose: eluted from iC3b-sepharose
Substance: CD11b/CD18: wild-type, membrane-bound CD11b/CD18 from surface-labelled neutrophils
